Measured values taken from patent US20160326219A1, “OPTICALLY ACTIVATED RECEPTORS” (IST AUSTRIA (INSTITUTE OF SCIENCE AND TECHNOLOGY AUSTRIA), priority 2013, published 2016).
Where two headings read alike, the source gives them in different places.

Key:
MAPK pathway = test: Stimulation and detection of MAPK signaling, PathDetect Elk1 luciferase reporter (HEK293 cells); assay type: cell-based, human; conditions: for MAPK pathway activation in response to blue light: HEK293 cells expressing the fusion protein (LOV domain fused to RTK intracellular domain), ~3 μW/mm^2; for MAPK pathway activation in response to red light: HEK293 cells, PCB incubation, ~0.05 μW/mm^2
Procedure: For light stimulation of cells, an incubator (PT2499, ExoTerra/HAGEN, Holm, Germany) was equipped with 300 light emitting diodes (JS-FS505ORGB-W30 with JS-CON-004 controller, Komerci, Ebern, Germany; λmax˜630 nm (red), λmax˜530 nm (green), λmax˜470 nm (blue), bandwidth ˜±5 nm). Light intensity was controlled with an analog dimmer and measured with a digital power meter (PM120VA, Thorlabs, Munich, Germany). Intensities at maximal output were 2.3 (red), 2.6 (green) and 3.3 (blue light) W/m^2. For stimulation over extended time periods (>8 h), an aluminium box was equipped with the same light-emitting diodes and controller and placed in an incubator with standard tissue culture conditions (see below).
HEK293 cells and CHO-K1 (American Type Culture Collection (ATCC), Manassas, Va.) cells were maintained in DMEM supplemented with 10% FBS, 100 U/ml penicilin and 0.1 mg/ml streptomycin in a humidified incubator with 5% CO2 atmosphere. After trypsination, 5×10^4 cells were seeded in each well of 96-well plates (three to four wells for each construct) coated with poly-L-ornithine (Sigma, Vienna, Austria). Either transparent plates or black clear bottom plates were used. Cells were transfected using Lipofectamine 2000 (Invitrogen/LifeTech).
Phycocyanobilin (PCB; Livchem Logistics GmbH, Frankfurt a.M., Germany) was dissolved in a dark room to a stock concentration of 10 mM in DMSO. Aliquots were stored in the dark at −20° C. Prior to experiments, cells were incubated with 50 μM PCB overnight in reduced serum starve medium at 37° C. PCB could also be applied to applied to living animals as it is non-toxic even in high doses (0.17% of diet or 10 mg/kg) (McCarty (2007).
Activation of the MAPK pathway was assayed with the PathDetect Elk1 trans-Reporting System (Agilent) consisting of an Elk1 phosphorylation-dependent trans-activator and a luciferase-based trans-reporter. Cells were transfected with 213.3 ng total DNA per well (receptor, trans-activator and trans-reporter at ratio of 1:3:60 or 1:30:600) using Lipofectamine 2000. Six h after transfection medium was replaced with CO2-independent reduced serum starve medium (Gibco/Life Technologies; supplemented with 0.5% FBS, 2 mM L-Glutamine, 100 U/ml penicilin and 0.1 mg/ml streptomycin) for 18 h at 37° C. Cells were transferred and were either kept under constant illumination for 8 h or were protected from light. Chemical stimulation of imFGFR1 followed the same procedure, except that 10 nM AP20187 ((Clackson 1998); ARIAD Pharmaceuticals, Cambridge, Mass.) were added before transfer to the stimulation incubator. After incubation, plates were washed once with PBS and luciferase was detected with standard, off-the-shelf reagents. These were either Luciferase 1000 Assay System (Promega, Mannheim, Germany) in combination with a microplate reader equipped with an injector (Tecan Infinite 200 Pro, Maennedorf, Switzerland), or ONE-Glo Assay System (Promega) in combination with a microplate reader not equipped with an injector (BioTek Synergy H1). These assay systems provide equivalent results.

LOV domains = conditions: cited from earlier work

With “imFGFR1: chemically-inducible mFGFR1 lacking ligand-binding modules, with a single FKBP domain, SEQ ID NO: 56 [reference compound]” the “MAPK pathway activation in response to blue light” value (MAPK pathway) was “no effect”.

For “rtrkB-SyCP1-PHY: chimeric receptor of rat trkB catalytic domain and SyCP1-PHY, SEQ ID NO: 67”, the “MAPK pathway activation in response to red light” value (MAPK pathway) was “activate the canonical MAPK pathway”.

B1: Opto-hRET: fusion of human RET catalytic domain and VfAU1-LOV, SEQ ID NO: 60 (protein)
chain: MGSSKSKPKDPSQRLDVTGHCYHKFAHKPPISSAEMTFRRPAQAFPVSYSSSSARRPSLDSMENQVSVDAFKILEDPKWEFPRKNLVLGKTLGEGEFGKVVKATAFHLKGRAGYTTVAVKMLKENASPSELRDLLSEFNVLKQVNHPHVIKLYGACSQDGPLLLIVEYAKYGSLRGFLRESRKVGPGYLGSGGSRNSSSLDHPDERALTMGDLISFAWQISQGMQYLAEMKLVHRDLAARNILVAEGRKMKISDFGLSRDVYEEDSYVKRSQGRIPVKWMAIESLFDHIYTTQSDVWSFGVLLWEIVTLGGNPYPGIPPERLFNLLKTGHRMERPDNCSEEMYRLMLQCWKQEPDKRPVFADISKDLEKMMVKRRDYLDLAASTPSDSLIYDDGLSEEETPLVDCNNAPLPRALPSTWIENKLYGRISHAFTRFTGGPDYSLVKALQMAQQNFVITDASLPDNPIVYASRGFLTLTGYSLDQILGRNCRFLQGPETDPRAVDKIRNAITKGVDTSVCLLNYRQDGTTFWNLFFVAGLRDSKGNIVNYVGVQSKVSEDYAKLLVNEQNIEYKGVRTSNMLRRKPGGSGVDYPYDVPDYALD
modifications: hRET-VfAU1-LOV
In the case of B1, the “MAPK pathway activation in response to blue light” value (MAPK pathway) is reported as “robust activation”.

B2: NcVV-LOV: LOV domain of N. crassa vivid, residue 37 to 186 with Y50W mutation of Q9C3Y6, SEQ ID NO: 8 (protein, listed as Neurospora crassa)
chain: HTLYAPGGYDIMGWLIQIMNRPNPQVELGPVDTSCALILCDLKQKDTPIVYASEAFLYMTGYSNAEVLGRNCRFLQSPDGMVKPKSTRKYVDSNTINTMRKAIDRNAEVQVEVVNFKKNGQRFVNFLTMIPVRDETGEYRYSMGFQCETE
In the case of B2, the Kd (LOV domains; dark state, read-out: Estimated KD, Dark) is given as less than 5 µM and the Kd (LOV domains; light state, read-out: Estimated KD, Light) is given as less than 0.5 µM.

B3: mFGFR1-SyCP1-PHY: chimeric receptor of mFGFR1 catalytic domain and SyCP1-PHY, SEQ ID NO: 66 (protein)
chain: MGSSKSKPKDPSQRLDMKSGTKKSDFHSQMAVHKLAKSIPLRRQVTVSADSSASMNSGVLLVRPSRLSSSGTPMLAGVSEYELPEDPRWELPRDRLVLGKPLGEGCFGQVVLAEAIGLDKDKPNRVTKVAVKMLKSDATEKDLSDLISEMEMMKMIGKHKNIINLLGACTQDGPLYVIVEYASKGNLREYLQARRPPGLEYCYNPSHNPEEQLSSKDLVSCAYQVARGMEYLASKKCIHRDLAARNVLVTEDNVMKIADFGLARDIHHIDYYKKTTNGRLPVKWMAPEALFDRIYTHQSDVWSFGVLLWEIFTLGGSPYPGVPVEELFKLLKEGHRMDKPSNCTNELYMMMRDCWHAVPSQRPTFKQLVEDLDRIVALTSNQEYLDLSIPLDQYSPSFPDTRSSTCSSGEDSVFSHEPLPEEPCLPRHPTQLANSGLKRRVETGATTVQLSDQSLRQLETLAIHTAHLIQPHGLVVVLQEPDLTISQISANCTGILGRSPEDLLGRTLGEVFDSFQIDPIQSRLTAGQISSLNPSKLWARVMGDDFVIFDGVFHRNSDGLLVCELEPAYTSDNLPFLGFYHMANAALNRLRQQANLRDFYDVIVEEVRRMTGFDRVMLYRFDENNHGDVIAEDKRDDMEPYLGLHYPESDIPQPARRLFIHNPIRVIPDVYGVAVPLTPAVNPSTNRAVDLTESILRSAYHCHLTYLKNMGVGASLTISLIKDGHLWGLIACHHQTPKVIPFELRKACEFFGRVVFSNISAQEDTETFDYRVQLAEHEAVLLDKMTTAADFVEGLTNHPDRLLGLTGSQGAAICFGEKLILVGETPDEKAVQYLLQWLENREVQDVFFTSSLSQIYPDAVNFKSVASGLLAIPIARHNFLLWFRPEVLQTVNWGGDPNHAYEATQEDGKIELHPRQSFDLWKEIVRLQSLPWQSVEIQSALALKKAIVNLILRQAEETGGSGVDYPYDVPDYALD
modifications: redOpto-mFGFR1
For B3, the “MAPK pathway activation in response to red light” value (MAPK pathway) was “activate the canonical MAPK pathway”.

B4: SyCP1-PHY: PHY domain of Synechocystis PCC6803 CPH1, residue 2 to 514 of Q55168, SEQ ID NO: 64 (protein)
chain: ATTVQLSDQSLRQLETLAIHTAHLIQPHGLVVVLQEPDLTISQISANCTGILGRSPEDLLGRTLGEVFDSFQIDPIQSRLTAGQISSLNPSKLWARVMGDDFVIFDGVFHRNSDGLLVCELEPAYTSDNLPFLGFYHMANAALNRLRQQANLRDFYDVIVEEVRRMTGFDRVMLYRFDENNHGDVIAEDKRDDMEPYLGLHYPESDIPQPARRLFIHNPIRVIPDVYGVAVPLTPAVNPSTNRAVDLTESILRSAYHCHLTYLKNMGVGASLTISLIKDGHLWGLIACHHQTPKVIPFELRKACEFFGRVVFSNISAQEDTETFDYRVQLAEHEAVLLDKMTTAADFVEGLTNHPDRLLGLTGSQGAAICFGEKLILVGETPDEKAVQYLLQWLENREVQDVFFTSSLSQIYPDAVNFKSVASGLLAIPIARHNFLLWFRPEVLQTVNWGGDPNHAYEATQEDGKIELHPRQSFDLWKEIVRLQSLPWQSVEIQSALALKKAIVNLILRQAEE
modifications: Synechocystis PCC6803
In the case of B4, the “Red light intensity at which activation is already achieved” value (MAPK pathway; red light) is reported as 5.8 μW/cm^2 and the “Red light intensity at which activation is already achieved, converted” value (MAPK pathway; red light, conversion of 5.8 μW/cm^2) is reported as 0.0058 mW/cm^2.

B5: NgPA1-LOV: LOV domain of N. gaditana hypothetical protein NGA_0015702, residue 87 to 228 of K8Z861, SEQ ID NO: 12 (protein, listed as Nannochloropsis gaditana)
chain: PDYTLVKALQTAQQNFVITDPTLPDNPIVYASGGFLSLTGYQMDQILGRNCRFLQGPDTDPAAVDKIRRAIEDGTDGSVCLLNYRADGSTFWNQFFIAALRGADGNIVNYVGVQCKVSEEYASEVLKKEATSSTVAEASSKR
With B5 the “MAPK pathway activation in response to blue light” value (MAPK pathway) was “blue light-induced activation of MAPK signaling with amplitudes similar to that of the original Opto-mFGFR1” and the “Blue light intensity at which activation is already achieved” value (MAPK pathway) was 0.25 mW/cm^2.

B6: OdPA1-LOV: LOV domain of O. danica aureochrome1-like protein, residue 180 to 312 of C5NSW6, SEQ ID NO: 14 (protein, listed as Ochromonas danica)
chain: PDYSLVKALQTAQQNFVISDPSIPDNPIVYASQGFLTLTGYALSEVLGRNCRFLQGPETDPKAVEKVRKGLERGEDTTVVLLNYRKDGSTFWNQLFIAALRDGEGNVVNYLGVQCKVSEDYAKAFLKNEENEK
With B6 the “MAPK pathway activation in response to blue light” value (MAPK pathway) was “blue light-induced activation of MAPK signaling with amplitudes similar to that of the original Opto-mFGFR1” and the “Blue light intensity at which activation is already achieved” value (MAPK pathway) was 0.25 mW/cm^2.

B7: Opto-mFGFR1-R195E: Opto-mFGFR1 with charge inversion mutation R195E that prevents kinase domain dimer formation (protein)
chain: MGSSKSKPKDPSQRLDMKSGTKKSDFHSQMAVHKLAKSIPLRRQVTVSADSSASMNSGVLLVRPSRLSSSGTPMLAGVSEYELPEDPRWELPRDRLVLGKPLGEGCFGQVVLAEAIGLDKDKPNRVTKVAVKMLKSDATEKDLSDLISEMEMMKMIGKHKNIINLLGACTQDGPLYVIVEYASKGNLREYLQAREPPGLEYCYNPSHNPEEQLSSKDLVSCAYQVARGMEYLASKKCIHRDLAARNVLVTEDNVMKIADFGLARDIHHIDYYKKTTNGRLPVKWMAPEALFDRIYTHQSDVWSFGVLLWEIFTLGGSPYPGVPVEELFKLLKEGHRMDKPSNCTNELYMMMRDCWHAVPSQRPTFKQLVEDLDRIVALTSNQEYLDLSIPLDQYSPSFPDTRSSTCSSGEDSVFSHEPLPEEPCLPRHPTQLANSGLKRRVETGPDYSLVKALQMAQQNFVITDASLPDNPIVYASRGFLTLTGYSLDQILGRNCRFLQGPETDPRAVDKIRNAITKGVDTSVCLLNYRQDGTTFWNLFFVAGLRDSKGNIVNYVGVQSKVSEDYAKLLVNEQNIEYKGVRTSNMLRRKTGGSGVDYPYDVPDYALD
In the case of B7, the “MAPK pathway activation in response to blue light” value (MAPK pathway) is reported as “no MAPK pathway activation”.
